Measured values reported in the supplement of paper PMC11246515.
± gives the standard deviation of the averaged measurements.

Assay: total protein half-life in vivo (active degradation + dilution); higher = more stable protein
[1] = E. coli NCM3722 delta-clpP delta-lon delta-hslV, growth: N-lim chemostat, doubling time 6 h
[2] = E. coli NCM3722 delta-clpP, growth: N-lim chemostat, doubling time 6 h
[3] = E. coli NCM3722 delta-hslV, growth: N-lim chemostat, doubling time 6 h
[4] = E. coli NCM3722 delta-lon, growth: N-lim chemostat, doubling time 6 h
[5] = E. coli NCM3722 delta-smpB, growth: N-lim chemostat, doubling time 6 h
[6] = wild type E. coli NCM3722, growth: C-lim chemostat, doubling time 3 h
[7] = wild type E. coli NCM3722, growth: C-lim chemostat, doubling time 6 h
[8] = wild type E. coli NCM3722, growth: C-lim chemostat, doubling time 12 h
[9] = wild type E. coli NCM3722, growth: N-lim chemostat, doubling time 6 h
[10] = wild type E. coli NCM3722, growth: N-lim chemostat, doubling time 12 h
[11] = wild type E. coli NCM3722, growth: P-lim chemostat, doubling time 6 h
[12] = wild type E. coli NCM3722, growth: P-lim chemostat, doubling time 12 h

Sequence | total protein half-life in vivo [1] [h] | total protein half-life in vivo [2] [h] | total protein half-life in vivo [3] [h] | total protein half-life in vivo [4] [h] | total protein half-life in vivo [5] [h] | total protein half-life in vivo [6] [h] | total protein half-life in vivo [7] [h] | total protein half-life in vivo [8] [h] | total protein half-life in vivo [9] [h] | total protein half-life in vivo [10] [h] | total protein half-life in vivo [11] [h] | total protein half-life in vivo [12] [h]
MSAFTPASEVLLRHSDDFEQSRILFAGDLQDDLPARLDTAASRAHTQQFHHWQVLSRQMGDNARFSLVATADDVADCDTLIYYWPKNKPEAQFQLMNLLSLLPVGTDIFVVGENRSGVRSAEQMLADYAPLNKVDSARRCGLYFGRLEKQPVFDAEKFWGEYSVDGLTVKTLPGVFSRDGLDVGSQLLLSTLTPHTKGKVLDVGCGAGVLSVAFARHSPKIRLTLCDVSAPAVEASRATLAANGVEGEVFASNVFSEVKGRFDMIISNPPFHDGMQTSLDAAQTLIRGAVRHLNSGGELRIVANAFLPYPDVLDETFGFHEVIAQTGRFKVYRAIMTRQAKKG | 6.65 ± 1.3 | 5.678 ± 0.047 | 6.2 ± 0.67 | 6.21 ± 0.59 | 5.56 ± 0.52 | 2.93 ± 0.21 | 6.41 ± 0.39 | 11.6 ± 0.39 | 5.68 ± 0.71 | 11.1 ± 1.8 | 6 ± 0.36 | 12.9 ± 0.31
MSAGSPKFTVRRIAALSLVSLWLAGCSDTSNPPAPVSSVNGNAPANTNSGMLITPPPKMGTTSTAQQPQIQPVQQPQIQATQQPQIQPVQPVAQQPVQMENGRIVYNRQYGNIPKGSYSGSTYTVKKGDTLFYIAWITGNDFRDLAQRNNIQAPYALNVGQTLQVGNASGTPITGGNAITQADAAEQGVVIKPAQNSTVAVASQPTITYSESSGEQSANKMLPNNKPTATTVTAPVTVPTASTTEPTVSSTSTSTPISTWRWPTEGKVIETFGASEGGNKGIDIAGSKGQAIIATADGRVVYAGNALRGYGNLIIIKHNDDYLSAYAHNDTMLVREQQEVKAGQKIATMGSTGTSSTRLHFEIRYKGKSVNPLRYLPQR [P0ADA3] | 5.97 ± 0.43 | 6.2 ± 0.18 | 6.44 ± 0.29 | 7.02 ± 0.32 | 6.32 ± 0.11 | 2.926 ± 0.019 | 5.92 ± 0.28 | 12.8 ± 3.5 | 6.01 ± 0.067 | – | 5.81 ± 0.16 | 12 ± 0.81
MSAQINNIRPEFDREIVDIVDYVMNYEISSKVAYDTAHYCLLDTLGCGLEALEYPACKKLLGPIVPGTVVPNGVRVPGTQFQLDPVQAAFNIGAMIRWLDFNDTWLAAEWGHPSDNLGGILATADWLSRNAVASGKAPLTMKQVLTAMIKAHEIQGCIALENSFNRVGLDHVLLVKVASTAVVAEMLGLTREEILNAVSLAWVDGQSLRTYRHAPNTGTRKSWAAGDATSRAVRLALMAKTGEMGYPSALTAPVWGFYDVSFKGESFRFQRPYGSYVMENVLFKISFPAEFHSQTAVEAAMTLYEQMQAAGKTAADIEKVTIRTHEACIRIIDKKGPLNNPADRDHCIQYMVAIPLLFGRLTAADYEDNVAQDKRIDALREKINCFEDPAFTADYHDPEKRAIANAITLEFTDGTRFEEVVVEYPIGHARRRQDGIPKLVDKFKINLARQFPTRQQQRILEVSLDRARLEQMPVNEYLDLYVI | – | – | – | – | – | 3.04 ± 0.28 | 4.21 ± 0.07 | 8.53 ± 1 | 5.98 | – | – | –
MSAQKPGLHPRNRHHSRYDLATLCQVNPELRQFLTLTPAGEQSVDFANPLAVKALNKALLAHFYAVANWDIPDGFLCPPVPGRADYIHHLADLLAEASGTIPANASILDIGVGANCIYPLIGVHEYGWRFTGSETSSQALSSAQAIISSNPGLNRAIRLRRQKESGAIFNGIIHKNEQYDATLCNPPFHDSAAAARAGSERKRRNLGLNKDDALNFGGQQQELWCEGGEVTFIKKMIEESKGFAKQVMWFTSLVSRGENLPPLYRALTDVGAVKVVKKEMAQGQKQSRFIAWTFMNDEQRRRFVNRQR | 5.5 ± 0.76 | 4.08 ± 0.18 | 5.27 ± 1.1 | 5.31 ± 0.52 | 4.11 ± 0.72 | 2.98 ± 0.11 | 4.83 ± 0.83 | 13.2 | 4.81 ± 0.35 | 7.46 ± 0.98 | 5.28 ± 0.23 | 10.5 ± 0.17
MSAQVSLELHHRISQFLFHEASLLDDWKFRDWLAQLDEEIRYTMRTTVNAQTRDRRKGVQPPTTWIFNDTKDQLERRIARLETGMAWAEEPPSRTRHLISNCQISETDIPNVFAVRVNYLLYRAQKERDETFYVGTRFDKVRRLEDDNWRLLERDIVLDQAVITSHNLSVLF | > 8 | – | – | – | – | 2.05 | 5.02 | 8.73 | – | – | 5.1 ± 0.36 | 9.68 ± 0.98
MSCEELEIVWNNIKAEARTLADCEPMLASFYHATLLKHENLGSALSYMLANKLSSPIMPAIAIREVVEEAYAADPEMIASAACDIQAVRTRDPAVDKYSTPLLYLKGFHALQAYRIGHWLWNQGRRALAIFLQNQVSVTFQVDIHPAAKIGRGIMLDHATGIVVGETAVIENDVSILQSVTLGGTGKSGGDRHPKIREGVMIGAGAKILGNIEVGRGAKIGAGSVVLQPVPPHTTAAGVPARIVGKPDSDKPSMDMDQHFNGINHTFEYGDGI [P0A9D4] | 5.17 ± 0.28 | 4.83 ± 0.052 | 4.32 ± 0.11 | 4.85 ± 0.097 | 4.76 ± 0.16 | 3.65 ± 0.071 | 5.49 ± 0.22 | 9.82 ± 0.61 | 5.03 ± 0.5 | 7.88 ± 0.39 | 5.83 ± 0.13 | 11.5 ± 0.77
MSDDNSHSSDTISNKKGFFSLLLSQLFHGEPKNRDELLALIRDSGQNDLIDEDTRDMLEGVMDIADQRVRDIMIPRSQMITLKRNQTLDECLDVIIESAHSRFPVISEDKDHIEGILMAKDLLPFMRSDAEAFSMDKVLRQAVVVPESKRVDRMLKEFRSQRYHMAIVIDEFGGVSGLVTIEDILELIVGEIEDEYDEEDDIDFRQLSRHTWTVRALASIEDFNEAFGTHFSDEEVDTIGGLVMQAFGHLPARGETIDIDGYQFKVAMADSRRIIQVHVKIPDDSPQPKLDE [P0AE78] | 5.6 ± 0.81 | 4.83 ± 0.09 | 5.25 ± 0.99 | 5.54 ± 0.81 | 4.73 ± 0.13 | 2.91 ± 0.18 | 5.83 ± 0.67 | 10 ± 0.62 | 4.6 ± 0.091 | 8.26 ± 0.13 | 5.28 ± 0.17 | 9.77 ± 1.1
